According to US20200239555A1 (STATEN BIOTECHNOLOGY B V, published 2020):

Legend:
native human ApoC3 [1] = biological target: T1, native human ApoC3 (human, UniProt P02656 21-99); assay: SPR, ApoC3 over captured IgG1
T1 construct: also called nhuApoC3; native huApoC3
Procedure: (§1) An inverted SPR assay was designed in which a test antibody was captured on an SPR chip, human ApoC3 protein was injected, and binding of ApoC3 to the antibody was measured. […] The immobilization was performed in accordance with the method provided by Biacore/GE using the NHS/EDC kit (Biacore AB, Cat.nr. BR-1000-50): after activation of the chip, a solution of 30 μg/ml of anti-human Fcγ antibody in 10 mM acetate buffer with pH of 5.0 was prepared and injected until the surface density reached approximately 10000 RU. The analytical cycle comprised the following steps:
(§2) The resulting sensorgrams were analyzed using the BIAevaluation 4.1 software using Langmuir 1:1 binding model to derive binding kinetics. Data was zero adjusted, the reference cell sensorgrams were subtracted and the no analyte blank assay was used for double referencing the sensorgrams corresponding to the analyte injections. The dissociation and association phase sensorgrams were fitted separately for the 4 different concentration curves. Sensorgrams were excluded from the fitting if maximum RU values reached were below the detection limit of the equipment (<5 RU), Biacore 3000 (Biacore AB).

native human ApoC3 [2] = biological target: T1, native human ApoC3; assay: SPR, ApoC3 over captured IgG1, pH 5.5
Procedure: as §1, §2

native human ApoC3 [3] = biological target: T1, native human ApoC3; assay: SPR, ApoC3 over captured IgG1, pH 7.4
Procedure: as §1, §2

[4] = biological target: T2, biotinylated native human ApoC3 (human, UniProt P02656 21-99, biotinylated (site not stated)); assay: SPR, IgG1 over biotinylated ApoC3 on SA chip
T2 construct: also called biotinylated human ApoC3
T2 sequence (P02656 21-99): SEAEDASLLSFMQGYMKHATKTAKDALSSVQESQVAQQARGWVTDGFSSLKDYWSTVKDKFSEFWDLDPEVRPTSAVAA
Procedure: (§3) Biotinylated native human ApoC3 was captured on a streptavidin coated SPR chip (GE Healthcare, cat. nr. BR100032) at pH 7.4, in accordance with the method provided by Biacore, by injection of 20 μl 10 μg/ml biotinylated native human ApoC3 reaching the surface density of approximately 500 RU. 60 μL of test antibody in 1-50 nM range diluted in HBS-EP buffer (GE, cat # BR-1008-26; 0.010 M HEPES, 0.150M NaCl, 3 mM EDTA, 0.05% (v/v) surfactant P20, pH 7.4) was injected and passed through the flow cells at a flow rate of 30 μl/min, followed by an off-rate wash at pH7.4 for 5 min. After the dissociation, the flow cell surfaces were regenerated by injecting 10 μl of 10 mM NaOH/1 M NaCl and 10 μl of 10 mM glycine at pH1.5. The assay was repeated at pH5.5 using the same general protocol, where the running and sample dilution buffer was replaced by a HBS-EP buffer supplemented with citrate buffer to 10 mM final concentration and pH adjusted to 5.5.
(§4) The resulting sensorgrams were analyzed using the BIAevaluation 4.1 software using Langmuir 1:1 binding model to derive binding kinetics. Data was zero adjusted and the reference cell sensorgrams were subtracted. Sensorgrams were double referenced to no-analyte blank assay. Fitted parameters were considered not applicable if off-rate values were below the equipment's detection limit of kd: 1×10⁻⁶ 1/s.

[5] = biological target: T2, biotinylated native human ApoC3; assay: SPR, IgG1 over biotinylated ApoC3 on SA chip, pH 5.5
Procedure: as §3, §4

[6] = biological target: T2, biotinylated native human ApoC3; assay: SPR, IgG1 over biotinylated ApoC3 on SA chip, pH 7.4
Procedure: as §3, §4

T1 sequence (P02656 21-99): as above

| Binder | KD (nM) pH5.5/pH7.4 (native human ApoC3 [1]) | Ka (native human ApoC3 [2]) [M⁻¹] | koff (native human ApoC3 [2]) [s⁻¹] | kon (native human ApoC3 [2]) [M⁻¹ s⁻¹] | Ka (native human ApoC3 [3]) [M⁻¹] | koff (native human ApoC3 [3]) [s⁻¹] | kon (native human ApoC3 [3]) [M⁻¹ s⁻¹] | KD pH5.5/KD pH7.4 [4] | Ka [5] [M⁻¹] | Kd [5] [nM] | koff [5] [s⁻¹] | kon [5] [M⁻¹ s⁻¹] | Ka [6] [M⁻¹] | Kd [6] [nM] | koff [6] [s⁻¹] | kon [6] [M⁻¹ s⁻¹] | Kd (native human ApoC3 [3]) [nM] |
| --- | --- | --- | --- | --- | --- | --- | --- | --- | --- | --- | --- | --- | --- | --- | --- | --- | --- |
| mAb5 (antibody, IgG1, V domains shown, Produced as full length IgG1 (kappa) in ExpiCHO-S cells; also called humanized anti-ApoC3 antibody mAb5) VH: QLVESGGGLVQPGGSLRLSCAASGFTFGTYSMRWVRQAPGKGLEWVSSIHTEGGGTAYRDSVKGRFTISRDNAKNTLYLQMNSLRAEDTAVYYCVIAGYSDWGQGTLVTVSS VL: DIVMTQSPLSLPVTPGESASISCKTSQGLVHSDGKTYFYWFLQKPGQSPQQLIYQVSNRASGVPDRFTGSGSGTDFTLKISRVKAEDAGVYYCAHGTYYPHTFGQGTRLEIK | 2.25 | 2.45e+06 | 0.0376 | 92000 | 5.51e+06 | 0.00637 | 35100 | 2.33 | 2.9e+09 | 0.35 | 0.000145 | 419000 | 6.76e+09 | 0.15 | 3.51e-05 | 237000 | – |
| mAb18 (antibody, IgG1, V domains shown, Produced as full length IgG1 (kappa) in ExpiCHO-S cells; also called humanized anti-ApoC3 antibody mAb18) VH: QLVESGGGLVQPGGSLRLSCAASGFTFSTYSMRWVRQAPGKGLEWVSSIHTEAGGTAYRDSVKGRFTISRDNAKNTLYLQMNNLRAEDTAVYYCVIAGYSDWGQGTLVTVSS VL: DIVMTQSPLSLPVTPGEPASISCKTSQGLVHSGGKTYFYWFLQKPGQSPQQLIYQVSNRASGVPDRFTGSGSGTDFTLKISRVEAEDAGVYYCAHGTYYPHTFGQGTRLEIK | – | – | – | – | 1.97e+06 | 0.0539 | 106000 | 6.48 | 1.16e+08 | – | 0.0155 | 1.79e+06 | 7.49e+08 | – | 0.000838 | 628000 | – |
| mAb1 (antibody, IgG1, V domains shown, Produced as full length IgG1 (kappa) in ExpiCHO-S cells; also called humanized anti-ApoC3 antibody mAb1) VH: QLVESGGGLVQPGGSLRLSCAASGFTFGTYSMRWVRQVPGKGLEWVSSIHTEGGGTAYRDSVKGRFTISRDNAKNTLYLQMNSLRAEDTAIYYCVIAGYSDWGQGTLVTVSS VL: DIVMTQSPLSLPVTPGESASISCKTSQGLVHSDGKTYFYWFLQKPGQSPQQLIYQVSNRASGVPDRFTGSGSGTDFTLKISRVKAEDAGVYYCAHGTYYPHTFGQGTRLEIK | 3.42 | 3.95e+06 | 0.0257 | 101000 | 1.35e+07 | 0.00426 | 57600 | 5.22 | 4.23e+09 | 0.24 | 0.000104 | 440000 | 2.2e+10 | 0.05 | 1.18e-05 | 261000 | 74 |
| mAb20 (antibody, IgG1, V domains shown, Produced as full length IgG1 (kappa) in ExpiCHO-S cells; also called humanized anti-ApoC3 antibody mAb20) VH: QLVESGGGLVQPGGSLRLSCAASGFTFSTYSMRWVRQAPGKGLEWVSSIHTDAGGTAYRDSVKGRFTISRDNAKNTLYLQMNNLRPEDTAVYYCVIAGYSDWGQGTLVTVSS VL: DIVMTQSPGSLSVTPGEPASISCKTSQGLVHSGGKTYFYWFLQKPGQSPQQLIYQVSNRASGVPDRFTGSGSGTDFTLKISGVEAEDAGVYYCAHGTYYPHTFGQGTRLEIK | – | – | – | – | 747000 | 0.0737 | 55100 | 16.1 | 1.06e+08 | – | 0.0214 | 2.27e+06 | 1.71e+09 | 0.59 | 0.000487 | 831000 | – |
| mAb4 (antibody, IgG1, V domains shown, Produced as full length IgG1 (kappa) in ExpiCHO-S cells; also called humanized anti-ApoC3 antibody mAb4) VH: QLVESGGGLVQPGGSLRLSCAASGFTFGTYSMRWVRQAPGKGLEWVSSIHTEGGGTAYRDSVKGRFTISRDNAKNTLYLQMNSLRAEDTAIYYCVIAGYSDWGQGTLVTVSS VL: DIVMTQSPLSLPVTPGESASISCKTSQGLVHSDGKTYFYWFLQKPGQSPQQLIYQVSNRASGVPDRFSGSGSGTDFTLKISRVKAEDAGVYYCAHGTYYPHTFGQGTRLEIK | 3.48 | 2.32e+06 | 0.0359 | 83100 | 8.06e+06 | 0.00565 | 45500 | – | 2.67e+09 | 0.37 | 0.000156 | 416000 | 2.15e+11 | – | 1.13e-06 | 243000 | – |
